For orientation: Kd means a measure of binding affinity in units of concentration.

The text below walks through data of US20230357395A1 (MARENGO THERAPEUTICS, published 2023).

Experiment [1] deals with T1, Human NKp30, construct BKM0179 (human, UniProt O14931 19-135, limits assumed).
T1 construct: Immobilized on a CM5 chip via anti-mouse Fc antibody, so it likely carries a mouse Fc; also called Human Nkp30 (BKM0179)
T1 sequence (looked up): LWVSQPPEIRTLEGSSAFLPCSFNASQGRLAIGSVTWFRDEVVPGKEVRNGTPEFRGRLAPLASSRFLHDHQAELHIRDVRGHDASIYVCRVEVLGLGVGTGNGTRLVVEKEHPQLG
Put plainly: SPR (BIAcore T200), human NKp30 BKM0179 captured via anti-mouse Fc on CM5, antibody injected 3.9-125 nM, 1:1 fit. As for the experimental part: In this example, a series of exemplary anti-NKp30 antibody molecules were analyzed for their binding affinity for NKp30. Briefly, surface plasmon resonance (SPR) measurements were performed by using the BIAcore T200. Human NKp30 (BKM0179) was immobilized on a CM5 chip via anti-mouse Fc antibody to a response of 50 RU. […] The data was fit using a 1:1 binding model.
Background: In SPR one partner is held on a chip, and binding of the other changes the refractive index at the surface.

Experiment [2] deals with T2, human TRBC2 (hTRBC2), construct BIM0445 (human, UniProt A0A5B9 1-129, limits assumed).
T2 construct: also called BIM0445 (hTRBC2)
The experiment can be described thus: SPR (BIAcore T200), antibody captured via anti-human Fc.

Experiment [3] deals with T3, human TRBC1 (hTRBC1), construct BIM0443 (human, UniProt P01850 1-129, limits assumed).
T3 construct: also called Human TRBC1 (BIM0443); BIM0443 (hTRBC1)
Put plainly: SPR (BIAcore T200), antibody captured via anti-human Fc on CM5, hTRBC1 BIM0443 injected 15.6-500 nM, 1:1 fit. How it is done:
In this example, a series of exemplary anti-TRBC1 antibody molecules were analyzed for their binding affinity for TRBC1. Briefly, surface plasmon resonance (SPR) measurements were performed by using the BIAcore T200. Each of the exemplary anti-TRBC1 antibody constructs was immobilized on a CM5 chip via anti-human Fc antibody to a response of 50 RU. […] The data was fit using a 1:1 binding model.

T3 sequence (P01850 1-129 limits assumed): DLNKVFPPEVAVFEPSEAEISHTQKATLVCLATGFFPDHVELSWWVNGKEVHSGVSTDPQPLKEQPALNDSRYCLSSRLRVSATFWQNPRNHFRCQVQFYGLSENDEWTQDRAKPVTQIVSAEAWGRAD
T2 sequence (A0A5B9 1-129 limits assumed): as the sequence (P01850 1-129 limits assumed) above, with N3K, K4N, E9K, F36Y counted along it

B1: BJM1078 (BJM0407 Parental) (antibody, V domains shown)
VH: EIQLLESGGGLVQPGGSLRLSCAVSGFSITTTGYHWNWVRQAPGKGLEWVGYIYSSGSTSYNPSLKSRFTISRDTSKNTFYLQMNSLRAEDTAVYYCARGDWHYFDYWGQGTMVTVSS
VL: SSETTQPPSVSVSPGQTASITCSGEKLSDKYVHWYQQKPGQSPVMVIYENDRRPSGIPERFSGSNSGNTATLTISGTQAMDEADYFCQFWDSTNSAVFGGGTQLTVL
As for B1, the Kd in experiment [1] was 1.48 nM.

B2: BJM1079 (BJM0411 Parental) (antibody, V domains shown)
VH: EIQLLESGGGLVQPGGSLRLSCAVSGFSITTTGYHWNWVRQAPGKGLEWVGYIYSSGSTSYNPSLKSRFTISRDTSKNTFYLQMNSLRAEDTAVYYCARGDWHYFDYWGQGTMVTVSS
VL: DSVTTQSPLSLPVTLGQPASISCSGEKLSDKYVHWYQQRPGQSPRMLIYENDRRPSGVPDRFSGSNSGNDATLKISRVEAEDVGVYFCQFWDSTNSAVFGGGTKVEIK
In the case of B2, the Kd in experiment [1] is 1.26 nM.

B3: BJM0578 (bivalent) (antibody, V domains shown)
VH: QVQLVQSGAEVKKPGSSVKVSCKASGYTFTGYVMHWVRQAPGQGLEWMGFIIPIFGTANYAQKFQGRVTITSDKSTTTAYMELSSLRSEDTAVYYCARGAGYNFDGAYRFFDFWGQGTLVTVSS
VL: DVVMTQSPLSLPVTLGQPASISCRSSQRLVHSNGNTYLHWYQQRPGQSPRLLIYRVSNRFPGVPDRFSGSGSGTDFTLKISRVEAEDVGVYFCSQSTHVPYTFGGGTKVEIK
notes: Bivalent construct with a human Fc
Consider B3, for which the binding result in experiment [2] is “no binding”. The molecule also showed a Kd in experiment [3] of 75 nM.

B4: BIM0460 (bivalent) (antibody, V domains shown)
VH: QVQLVQSGAEVKKPGSSVKVSCKASGYTFTGYVMHWVRQAPGQGLEWMGFINPYNDDIQSNERFRGRVTITSDKSTTTAYMELSSLRSEDTAVYYCARGAGYNFDGAYRFFDFWGQGTLVTVSS
VL: DVVMTQSPLSLPVTLGQPASISCRSSQRLVHSNGNTYLHWYQQRPGQSPRLLIYRVSNRFPGVPDRFSGSGSGTDFTLKISRVEAEDVGVYFCSQSTHVPYTFGGGTKVEIK
notes: Bivalent construct with a human Fc (captured via anti-human Fc antibody)
As to B4, in experiment [2], the binding result is recorded as “no binding”. For the same molecule, the Kd in experiment [3] stood at 10 nM.

B5: BKM0191 (single arm) (antibody, V domains shown)
VH: QVQLVQSGAEVKKPGSSVKVSCKASGYTFTGYVMHWVRQAPGQGLEWMGFIIPIFGTANYAQKFQGRVTITSDKSTTTAYMELSSLRSEDTAVYYCARGAGYNFDGAYRFFDFWGQGTLVTVSS
VL: DVVMTQSPLSLPVTLGQPASISCRSSQRLVHSNANTYLHWYQQRPGQSPRLLIYRVSNRFPGVPDRFSGSGSGTDFTLKISRVEAEDVGVYFCSQSTHVPYTFGGGTKVEIK
notes: Single arm anti-TRBC1 construct with human Fc; also called G29A
Take B5: in experiment [2], the binding result is “no binding”. In experiment [3], the Kd turned out to be 75 nM.

B6: BKM0193 (single arm) (antibody, V domains shown)
VH: QVQLVQSGAEVKKPGSSVKVSCKASGYTFTGYVMHWVRQAPGQGLEWMGFIIPIFGTANYAQKFQGRVTITSDKSTTTAYMELSSLRSEDTAVYYCARGAGYNFDGAYRFFDFWGQGTLVTVSS
VL: DVVMTQSPLSLPVTLGQPASISCRSSQRLVHSNANAYLHWYQQRPGQSPRLLIYRVSNRFPGVPDRFSGSGSGTDFTLKISRVEAEDVGVYFCSQSTHVPYTFGGGTKVEIK
notes: Single arm anti-TRBC1 construct with human Fc; also called G29A T31A
For the molecule B6, in experiment [2], the binding result is listed as “no binding”. In experiment [3], this molecule had a Kd of 360 nM.

B7: BKM0195 (single arm) (antibody, V domains shown)
VH: QVQLVQSGAEVKKPGSSVKVSCKASGYTFTGYVMHWVRQAPGQGLEWMGFIIPIFGTANYAQKFQGRVTITSDKSTTTAYMELSSLRSEDTAVYYCARGAGYNFDGAYRFFDFWGQGTLVTVSS
VL: DVVMTQSPLSLPVTLGQPASISCRSSQRLVHSNGSTYLHWYQQRPGQSPRLLIYRVSNRFPGVPDRFSGSGSGTDFTLKISRVEAEDVGVYFCSQSTHVPYTFGGGTKVEIK
notes: Single arm anti-TRBC1 construct with human Fc; also called N30S
For the molecule B7, in experiment [2], the binding result is reported as “no binding”. The same molecule showed a Kd in experiment [3] of 317 nM.

B8: BKM0194 (single arm) (antibody, V domains shown)
VH: QVQLVQSGAEVKKPGSSVKVSCKASGYTFTGYVMHWVRQAPGQGLEWMGFIIPIFGTANYAQKFQGRVTITSDKSTTTAYMELSSLRSEDTAVYYCARGAGYNFDGAYRFFDFWGQGTLVTVSS
VL: DVVMTQSPLSLPVTLGQPASISCRSSQRLVHSGGNTYLHWYQQRPGQSPRLLIYRVSNRFPGVPDRFSGSGSGTDFTLKISRVEAEDVGVYFCSQSTHVPYTFGGGTKVEIK
notes: Single arm anti-TRBC1 construct with human Fc; also called N28G
B8: the binding result in experiment [2] is given as “no binding”. This molecule yielded a Kd in experiment [3] of 180 nM.

B9: BKM0192 (single arm) (antibody, V domains shown)
VH: QVQLVQSGAEVKKPGSSVKVSCKASGYTFTGYVMHWVRQAPGQGLEWMGFIIPIFGTANYAQKFQGRVTITSDKSTTTAYMELSSLRSEDTAVYYCARGAGYNFDGAYRFFDFWGQGTLVTVSS
VL: DVVMTQSPLSLPVTLGQPASISCRSSQRLVHSNGNAYLHWYQQRPGQSPRLLIYRVSNRFPGVPDRFSGSGSGTDFTLKISRVEAEDVGVYFCSQSTHVPYTFGGGTKVEIK
notes: Single arm anti-TRBC1 construct with human Fc; also called T31A
With B9, in experiment [2], the binding result is “no binding”. For the same molecule, in experiment [3], the affinity, expressed as Kd, was 138 nM.

B10: BKM0138 (scFv)
scFv: EIQLLESGGGLVQPGGSLRLSCAVSGFSITTTGYHWNWVRQAPGKGLEWVGYIYSSGSTSYNPSLKSRFTISRDTSKNTFYLQMNSLRAEDTAVYYCARGDWHYFDYWGQGTMVTVSSGGGGSGGGGSGGGGSGGGGSDSVTTQSPLSLPVTLGQPASISCSGEKLSDKYVHWYQQRPGQSPRMLIYENDRRPSGVPDRFSGSNSGNDATLKISRVEAEDVGVYFCQFWDSTASAVFGGGTKVEIK
notes: also called BJM0411 VL-N95A
In experiment [1], B10 registered a Kd of 3.2 nM.

B11: BKM0144 (scFv)
scFv: EIQLLESGGGLVQPGGSLRLSCAVSGFSITTTGYHWNWVRQAPGKGLEWVGYIYSSGSTSYAPSLKSRFTISRDTSKNTFYLQMNSLRAEDTAVYYCARGDWHYFDYWGQGTMVTVSSGGGGSGGGGSGGGGSGGGGSDSVTTQSPLSLPVTLGQPASISCSGEKLSDKYVHWYQQRPGQSPRMLIYENDRRPSGVPDRFSGSNSGNDATLKISRVEAEDVGVYFCQFWASTASAVFGGGTKVEIK
notes: also called BJM0411 VH-N60A-VL-D92A-N95A
On to B11, for which the Kd in experiment [1] turned out to be 6.4 nM.

B12: BKM0142 (scFv)
scFv: EIQLLESGGGLVQPGGSLRLSCAVSGFSITTTGYHWNWVRQAPGKGLEWVGYIYSSGSTSYAPSLKSRFTISRDTSKNTFYLQMNSLRAEDTAVYYCARGDWHYFDYWGQGTMVTVSSGGGGSGGGGSGGGGSGGGGSDSVTTQSPLSLPVTLGQPASISCSGEKLSDKYVHWYQQRPGQSPRMLIYENDRRPSGVPDRFSGSNSGNDATLKISRVEAEDVGVYFCQFWDSTNSAVFGGGTKVEIK
notes: also called BJM0411 VH-N60A
The molecule B12 showed a dissociation constant Kd in experiment [1] of 1.28 nM.

B13: BKM0139 (scFv)
scFv: EIQLLESGGGLVQPGGSLRLSCAVSGFSITTTGYHWNWVRQAPGKGLEWVGYIYSSGSTSYNPSLKSRFTISRDTSKNTFYLQMNSLRAEDTAVYYCARGDWHYFDYWGQGTMVTVSSGGGGSGGGGSGGGGSGGGGSDSVTTQSPLSLPVTLGQPASISCSGEKLSDKYVHWYQQRPGQSPRMLIYENDRRPSGVPDRFSGSNSGNDATLKISRVEAEDVGVYFCQFWASTNSAVFGGGTKVEIK
notes: also called BJM0411 VL-D92A
In the case of B13, the Kd in experiment [1] was found to be 3.2 nM.

B14: BKM0140 (scFv)
scFv: EIQLLESGGGLVQPGGSLRLSCAVSGFSITTTGYHWNWVRQAPGKGLEWVGYIYSSGSTSYNPSLKSRFTISRDTSKNTFYLQMNSLRAEDTAVYYCARGDWHYFDYWGQGTMVTVSSGGGGSGGGGSGGGGSGGGGSSSETTQPPSVSVSPGQTASITCSGEKLSDKYVHWYQQKPGQSPVMVIYENDRRPSGIPERFSGSNSGNTATLTISGTQAMDEADYFCQFWASTNSAVFGGGTQLTVL
notes: also called BJM0407 VL-D92A
In turn, B14 yielded a Kd in experiment [1] of 3.3 nM.

B15: BKM0145 (scFv)
scFv: EIQLLESGGGLVQPGGSLRLSCAVSGFSITTTGYHWNWVRQAPGKGLEWVGYIYSSGSTSYAPSLKSRFTISRDTSKNTFYLQMNSLRAEDTAVYYCARGDWHYFDYWGQGTMVTVSSGGGGSGGGGSGGGGSGGGGSSSETTQPPSVSVSPGQTASITCSGEKLSDKYVHWYQQKPGQSPVMVIYENDRRPSGIPERFSGSNSGNTATLTISGTQAMDEADYFCQFWASTASAVFGGGTQLTVL
notes: also called BJM0407 VH-N60A-VL-D92A-N95A
B15 registered a dissociation constant Kd in experiment [1] of 4.2 nM.

B16: BKM0143 (scFv)
scFv: EIQLLESGGGLVQPGGSLRLSCAVSGFSITTTGYHWNWVRQAPGKGLEWVGYIYSSGSTSYAPSLKSRFTISRDTSKNTFYLQMNSLRAEDTAVYYCARGDWHYFDYWGQGTMVTVSSGGGGSGGGGSGGGGSGGGGSSSETTQPPSVSVSPGQTASITCSGEKLSDKYVHWYQQKPGQSPVMVIYENDRRPSGIPERFSGSNSGNTATLTISGTQAMDEADYFCQFWDSTNSAVFGGGTQLTVL
notes: also called BJM0407 VH-N60A
Turning to B16, the Kd in experiment [1] stood at 1.45 nM.

B17: BKM0141 (scFv)
scFv: EIQLLESGGGLVQPGGSLRLSCAVSGFSITTTGYHWNWVRQAPGKGLEWVGYIYSSGSTSYNPSLKSRFTISRDTSKNTFYLQMNSLRAEDTAVYYCARGDWHYFDYWGQGTMVTVSSGGGGSGGGGSGGGGSGGGGSSSETTQPPSVSVSPGQTASITCSGEKLSDKYVHWYQQKPGQSPVMVIYENDRRPSGIPERFSGSNSGNTATLTISGTQAMDEADYFCQFWDSTASAVFGGGTQLTVL
notes: also called BJM0407 VL-N95A
B17: in experiment [1], the Kd worked out at 3 nM.
